According to patent US20170298096A1 (CANIMGUIDE THERAPEUTICS, published 2017):
No end group written: not given here.

T1: His-tagged P3028 (human, not fully specified)
T1 construct: the tag is put first after 'PGE73=His-tag-P3028'; also called PGE73; not shown: His-tag
T1 peptide: {His‑tag}-VFDEFKPLVEEPQNLIK


Target: T1, His-tagged P3028
Test: chip ELISA

Binder	ELISA signal
KKLDTFFVRLSLFTER [P28R K9R]	374
KKLDTFFVKLSDFTER [P28R L12D]	89
KKADTFFVKLSLFTER [P28R L3A]	427
KKLDTFFVKLSLFTEF [P28R R16F]	297
KKLDTFFVKLSLFTEL [P28R R16L]	217
KKDDTFFVKLSLFTER [P28R L3D]	492
KKLDTFFVKLSLFTEY [P28R R16Y]	311
KKQDTFFVKLSLFTER [P28R L3Q]	473
KKLDTFFVKWSLFTER [P28R L10W]	316
KKIDTFFVKLSLFTER [P28R L3I]	454
KKLDTFFVKLSQFTER [P28R L12Q]	651
KKLDTFFVKLSVFTER [P28R L12V]	545
KKLDTFFVKLSSFTER [P28R L12S]	478
KKLDTFFVYLSLFTER [P28R K9Y]	198
KKTDTFFVKLSLFTER [P28R L3T]	451
KKSDTFFVKLSLFTER [P28R L3S]	393
KKLDTFFVKFSLFTER [P28R L10F]	403
KKLDTFFVKLSHFTER [P28R L12H]	460
KKLDTFFVKLSLFTEM [P28R R16M]	238
KKLDTFFVKLSLFTEE [P28R R16E]	107
KKLDTFFVKLSLFTEK [P28R R16K]	291
KKLDTFFVKQSLFTER [P28R L10Q]	470
KKLDTFFVTLSLFTER [P28R K9T]	347
KKLDTFFVKLSLFTEV [P28R R16V]	254

Binder	ELISA signal
KKLDTFFVKLSLFTES [P28R R16S]	184
KKLDTFFVKESLFTER [P28R L10E]	81
KKLDTFFVKVSLFTER [P28R L10V]	658
KKLDTFFVKLSLFTEQ [P28R R16Q]	133
KKLDTFFVKISLFTER [P28R L10I]	415
KKLDTFFVKLSEFTER [P28R L12E]	82
KKLDTFFVKYSLFTER [P28R L10Y]	382
KKLDTFFVKLSLFTEI [P28R R16I]	176
KKLDTFFVKKSLFTER [P28R L10K]	285
KKLDTFFVKLSLFTET [P28R R16T]	292
KKYDTFFVKLSLFTER [P28R L3Y]	344
KKEDTFFVKLSLFTER [P28R L3E]	528
KKLDTFFVKLSWFTER [P28R L12W]	409
KKHDTFFVKLSLFTER [P28R L3H]	477
KKLDTFFVKSSLFTER [P28R L10S]	351
KKLDTFFVKLSLFTEN [P28R R16N]	311
KKLDTFFVKLSKFTER [P28R L12K]	355
KKLDTFFVKLSIFTER [P28R L12I]	456
KKLDTFFVKLSMFTER [P28R L12M]	499
KKLDTFFVKLSLFTED [P28R R16D]	133
KKKDTFFVKLSLFTER [P28R L3K]	386
KKLDTFFVKLSLFTEH [P28R R16H]	239
KKWDTFFVKLSLFTER [P28R L3W]	341
KKLDTFFVKHSLFTER [P28R L10H]	293

Binder	ELISA signal
KKLDTFFVKLSLFTEA [P28R R16A]	226
KKLDTFFVKMSLFTER [P28R L10M]	460
KKNDTFFVKLSLFTER [P28R L3N]	374
KKFDTFFVKLSLFTER [P28R L3F]	393
KKLDTFFVVLSLFTER [P28R K9V]	248
KKLDTFFVKLSNFTER [P28R L12N]	462
KKRDTFFVKLSLFTER [P28R L3R]	370
KKLDTFFVKLSFFTER [P28R L12F]	389
KKLDTFFVKTSLFTER [P28R L10T]	399
KKLDTFFVKNSLFTER [P28R L10N]	365
KKLDTFFVKRSLFTER [P28R L10R]	439
KKVDTFFVKLSLFTER [P28R L3V]	377
KKLDTFFVKLSTFTER [P28R L12T]	437
KKMDTFFVKLSLFTER [P28R L3M]	460
KKLDTFFVWLSLFTER [P28R K9W]	245
KKLDTFFVSLSLFTER [P28R K9S]	274
KKLDTFFVKLSYFTER [P28R L12Y]	320
KKLDTFFVKDSLFTER [P28R L10D]	102
KKLDTFFVKASLFTER [P28R L10A]	426
KKLDTFFVKLSLFTEW [P28R R16W]	202
KKLDTFFVKLALFTER [P28R S11A]	318
KKLDTFFVKLSAFTER [P28R L12A]	462
KKLDTFFVKLSRFTER [P28R L12R]	483
